Measurements as given in PMC4058522, “Structural Basis for Phosphorylation-Dependent Recruitment of Tel2 to Hsp90 by Pih1” (Structure(London, England:1993), 2014).
“Also recorded” adds a separate entry of the source.

Tests used:
full-length Hsp90 dimer = test: ITC, Spagh/RPAP3 binding to full-length Hsp90 dimer; conditions: 500 μM yeast Hsp90 into 20 μM Spagh/RPAP3^120–395, 10 mM Tris pH 7.5, 5 mM NaCl, ~1:2 molar ratio
Protocol: Heat of interaction was measured on an ITC200 microcalorimeter (Microcal) under the same buffer conditions (20 mM Tris, pH 7.5, containing 5 mM NaCl). Aliquots of the Tel2 peptides at 350 μM were injected into 30 μM of Pih1 at 30°C. Interactions with Tah1 or Spagh/RPAP3^120–395 were performed in 10 mM Tris pH 7.5 and 5 mM NaCl at 10°C and 30°C. Aliquots of 600 μM Tah1 were injected into 40 μM of yeast Hsp90, 400 μM of SRMEEVD injected into 30 μM Tah1, 301 μM yeast Hsp90 injected into 25 μM yeast Tah1-Pih1 complex, and 400 μM SRMEEVD injected into 30 μM yeast Tah1-Pih1 complex. For Spagh/RPAP3^120–395 experiments, aliquots of 500 μM yeast Hsp90 were injected into 20 μM Spagh/RPAP3^120–395 or 2 mM […] into 80 μM Spagh/RPAP3^120–395 or mutants (N172E, N321E, and N172E-N321E). Heats of dilution were determined by diluting injectant into buffer. Data were fitted using a curve-fitting algorithm (Microcal Origin). ATPase assays were previously described ([Prodromou et al., 1999]).

human Hsp90β = test: Hsp90 ATPase assay, human Hsp90β; assay type: biochemical; conditions: 10 μM Hsp90β, 40 μM RPAP3; % maximum activity of wild type

Kd (full-length Hsp90 dimer): 6.8 µM
B1: Spagh/RPAP3: tandem TPR region of human Spagh/RPAP3, residues 120–395 (protein)
chain: ESEEDGIHVDSQKALVLKEKGNKYFKQGKYDEAIDCYTKGMDADPYNPVLPTNRASAYFRLKKFAVAESDCNLAVALNRSYTKAYSRRGAARFALQKLEEAKKDYERVLELEPNNFEATNELRKISQALASKENSYPKEADIVIKSTEGERKQIEAQQNKQQAISEKDRGNGFFKEGKYERAIECYTRGIAADGANALLPANRAMAYLKIQKYEEAEKDCTQAILLDGSYSKAFARRGTARTFLGKLNEAKQDFETVLLLEPGNKQAVTELSKIKK
modifications: left off: GST, end not stated, state not stated
effect on ATPase activity of human Hsp90β (in words) (human Hsp90β): failed to show any strong regulatory effect; also recorded: no major effect
